Substitutions are numbered along the chain they refer to.

The chains are these.
T1: cynomolgus monkey FcγRIIIaS extracellular domain, His-tagged (cynomolgus monkey, UniProt Q8SPW2 21-206 at identity 1.00))
T1 construct: also called cyno FcγRIIIaS; cynoFcγRIIIaS; not shown: C-terminal His-tag
T1 chain: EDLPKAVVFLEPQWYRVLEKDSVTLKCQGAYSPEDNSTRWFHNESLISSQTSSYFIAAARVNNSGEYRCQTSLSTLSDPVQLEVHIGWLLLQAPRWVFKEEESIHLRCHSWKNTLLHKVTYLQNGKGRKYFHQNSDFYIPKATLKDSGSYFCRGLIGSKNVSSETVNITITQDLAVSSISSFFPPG

T2: cynomolgus monkey FcγRIIb extracellular domain, His-tagged (cynomolgus monkey)
T2 construct: also called cyno FcγRIIb; cynoFcγRIIb; not shown: C-terminal His-tag
T2 chain: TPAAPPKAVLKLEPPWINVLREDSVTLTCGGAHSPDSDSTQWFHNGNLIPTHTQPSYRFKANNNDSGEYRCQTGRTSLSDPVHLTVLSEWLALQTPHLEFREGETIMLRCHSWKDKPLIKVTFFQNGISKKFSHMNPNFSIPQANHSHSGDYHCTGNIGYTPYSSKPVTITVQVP

T3: cynomolgus monkey FcγRIIa2 extracellular domain, His-tagged (cynomolgus monkey)
T3 construct: also called cyno FcγRIIa2; cynoFcgRIIa2; not shown: C-terminal His-tag
T3 chain: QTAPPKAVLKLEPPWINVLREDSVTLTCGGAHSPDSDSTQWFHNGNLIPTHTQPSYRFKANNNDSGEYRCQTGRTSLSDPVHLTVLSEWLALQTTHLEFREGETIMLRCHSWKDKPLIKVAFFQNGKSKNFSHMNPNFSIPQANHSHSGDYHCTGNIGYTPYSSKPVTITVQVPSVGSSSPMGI

T4: human FcγRIIaH extracellular domain, His-tagged (human, UniProt P12318 34-217)
T4 construct: also called human FcγRIIa (type H); FcgRIIaH; not shown: C-terminal His-tag
T4 sequence: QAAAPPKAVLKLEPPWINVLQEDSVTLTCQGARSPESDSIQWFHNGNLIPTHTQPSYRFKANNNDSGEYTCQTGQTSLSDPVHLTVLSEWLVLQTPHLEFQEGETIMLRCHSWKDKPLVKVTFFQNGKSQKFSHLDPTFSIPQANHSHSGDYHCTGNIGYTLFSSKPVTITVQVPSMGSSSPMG

T5: human FcγRIIaR extracellular domain, His-tagged (human, UniProt P12318 34-217)
T5 construct: also called human FcγRIIa (type R); FcgRIIaR; not shown: C-terminal His-tag
T5 chain: T4 sequence with H134R

T6: cynomolgus monkey FcγRIIa3 extracellular domain, His-tagged (cynomolgus monkey)
T6 construct: also called cyno FcγRIIa3; cynoFcgRIIa3; not shown: C-terminal His-tag
T6 chain: T3 chain with K127I, N130K, H133P, Q142R

T7: human FcγRIIb extracellular domain, His-tagged (human, UniProt P31994 43-217)
T7 construct: also called FcgRIIb (human); not shown: C-terminal His-tag
T7 sequence: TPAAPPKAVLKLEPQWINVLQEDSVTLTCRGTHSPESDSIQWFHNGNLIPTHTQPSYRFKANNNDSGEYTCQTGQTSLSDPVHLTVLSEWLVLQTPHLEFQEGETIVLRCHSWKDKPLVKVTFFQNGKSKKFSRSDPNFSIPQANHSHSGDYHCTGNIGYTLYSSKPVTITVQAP

T8: cynomolgus monkey FcγRIIa1 extracellular domain, His-tagged (cynomolgus monkey)
T8 construct: also called cyno FcγRIIa1; cynoFcgRIIa1; not shown: C-terminal His-tag
T8 chain: T3 chain with T95P, A121T, K127I, S128A, N130K, N135D, Q142R

B1: M103205H795-MY464/M103202L889-SK1 (antibody, human IgG1, kappa)
heavy: QVTLKESGPVLVKPTETLTLTCTVSGIDLSHDDISWVRQAPGKGLEWVGIISYAGSTYYASWAKGRLTISKDTSKNQVVLTMTNMDPVDTATYYCARGVPAYSHGGDLWGQGTLVTVSSASTKGPSVFPLAPSSKSTSGGTAALGCLVKDYFPEPVTVSWNSGALTSGVHTFPAVLQSSGLYSLSSVVTVPSSSLGTQTYICNVNHKPSNTKVDKKVEPKSCDKTHTCPPCPIPELLTGPSVFLFPPKPKDTLMISRTPEVTCVVVDVSDEDPEVKFNWYVDGVEVHNAKTKPREEQYNSTYRVVSVLTVLHQDWLNGKEYKCKVSNKALPKPIEKTISKAKGQPREPQVYTLPPSREEMTKNQVSLTCLVKGFYPSDIAVEWESNGQPENNYKTTPPVLDSDGSFFLYSKLTVDKSRWQQGNVFSCSVMHEALHNHYTQKSLSLSP
light: DIVMTQSPATLSLSPGERATLSCTSSQSVYHANWLSWFQQKPGQPPKLLIYWASTLAYGVPSRFSGSGSGTDFTLTISSLQPEDAATYYCAGGYGGGRYAFGQGTKVEIKRTVAAPSVFIFPPSDEQLKSGTASVVCLLNNFYPREAKVQWKVDNALQSGNSQESVTEQDSKDSTYSLSSTLTLSKADYEKHKVYACEVTHQGLSSPVTKSFNRGEC
notes: copies: 2 + 2
B2: M103205H795-MY472/M103202L889-SK1 (antibody, human IgG1, kappa)
heavy: B1 heavy with I233S
light: B1 light
notes: copies: 2 + 2
B3: M103205H795-MY470/M103202L889-SK1 (antibody, human IgG1, kappa)
heavy: B1 heavy with I233Q
light: B1 light
notes: copies: 2 + 2
B4: M103205H795-MY465/M103202L889-SK1 (antibody, human IgG1, kappa)
heavy: B1 heavy with I233K
light: B1 light
notes: copies: 2 + 2
B5: M103205H795-MY469/M103202L889-SK1 (antibody, human IgG1, kappa)
heavy: B1 heavy with I233P
light: B1 light
notes: copies: 2 + 2
B6: M103205H795-MY471/M103202L889-SK1 (antibody, human IgG1, kappa)
heavy: B1 heavy with I233R
light: B1 light
notes: copies: 2 + 2
B7: M103205H795-MY467/M103202L889-SK1 (antibody, human IgG1, kappa)
heavy: B1 heavy with I233M
light: B1 light
notes: copies: 2 + 2
B8: M103205H795-MY468/M103202L889-SK1 (antibody, human IgG1, kappa)
heavy: B1 heavy with I233N
light: B1 light
notes: copies: 2 + 2
B9: M103205H795-MY466/M103202L889-SK1 (antibody, human IgG1, kappa)
heavy: B1 heavy with I233L
light: B1 light
notes: copies: 2 + 2

The first assay concerns the target T1, cynomolgus monkey FcγRIIIaS …. Nature of the assay: SPR (BIACORE); KD of SG1 divided by KD of variant. (SPR reads the build-up and loss of mass on a sensor chip optically.)
In the case of B1, the “KD fold (SG1 = 1)” value came to 0.2 fold.

As for B2, the “KD fold (SG1 = 1)” value worked out at 0.2 fold.

For B3, the “KD fold (SG1 = 1)” value was 0.2 fold.

For the molecule B4, the “KD fold (SG1 = 1)” value is 0.2 fold.

As to B5, the “KD fold (SG1 = 1)” value came to 0.2 fold.

As for B6, the “KD fold (SG1 = 1)” value was found to be 0.2 fold.

In the case of B7, the “KD fold (SG1 = 1)” value was 0.2 fold.

With B8, the “KD fold (SG1 = 1)” value worked out at 0.2 fold.

With B9, the “KD fold (SG1 = 1)” value was found to be 0.2 fold.

The target in a further assay is T9, human FcγRIIIaV extracellular domain, His-tagged (human, UniProt P08637 17-208).
T9 construct: also called FcgRIIIaV; not shown: C-terminal His-tag
T9 sequence (P08637 17-208 F176V): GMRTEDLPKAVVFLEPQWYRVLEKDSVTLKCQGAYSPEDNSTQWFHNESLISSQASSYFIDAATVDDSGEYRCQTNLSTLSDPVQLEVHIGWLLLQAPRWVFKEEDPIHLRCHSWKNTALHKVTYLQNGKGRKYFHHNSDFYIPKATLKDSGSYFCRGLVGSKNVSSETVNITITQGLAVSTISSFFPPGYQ
Description: SPR (BIACORE); KD of SG1 divided by KD of variant.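 Note: relative to parent M103205H795-SG1 carrying the SG1 human heavy chain constant region.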
Consider B1, for which the “KD fold (SG1 = 1)” value amounted to 0.2 fold.

Turning to B2, the “KD fold (SG1 = 1)” value was determined as 0.1 fold.

For B3, the “KD fold (SG1 = 1)” value is 0.2 fold.

On to B4, for which the “KD fold (SG1 = 1)” value stood at 0.1 fold.

For the molecule B5, the “KD fold (SG1 = 1)” value was found to be 0.1 fold.

In the case of B6, the “KD fold (SG1 = 1)” value turned out to be 0.2 fold.

In the case of B7, the “KD fold (SG1 = 1)” value worked out at 0.2 fold.

As for B8, the “KD fold (SG1 = 1)” value turned out to be 0.1 fold.

Regarding B9, the “KD fold (SG1 = 1)” value is 0.3 fold.

The target in another assay is T2, cynomolgus monkey FcγRIIb extracellular …. Description: SPR (BIACORE); KD of SG1 divided by KD of variant.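 Note: relative to parent M103205H795-SG1 carrying the SG1 human heavy chain constant region.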
Take B1: the “KD fold (SG1 = 1)” value turned out to be 3.6 fold.

Consider B2, for which the “KD fold (SG1 = 1)” value was determined as 2.7 fold.

As to B3, the “KD fold (SG1 = 1)” value is 3.3 fold.

For the molecule B4, the “KD fold (SG1 = 1)” value came out at 2.6 fold.

In the case of B5, the “KD fold (SG1 = 1)” value was determined as 3 fold.

B6: the “KD fold (SG1 = 1)” value was 2.6 fold.

Consider B7, for which the “KD fold (SG1 = 1)” value is 2.5 fold.

Consider B8, for which the “KD fold (SG1 = 1)” value was determined as 2.8 fold.

Turning to B9, the “KD fold (SG1 = 1)” value is 3.5 fold.

A further assay addresses T3, cynomolgus monkey FcγRIIa2 …. Nature of the assay: SPR (BIACORE); KD of SG1 divided by KD of variant.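 Note: relative to parent M103205H795-SG1 carrying the SG1 human heavy chain constant region.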
In the case of B1, the “KD fold (SG1 = 1)” value is 3.4 fold.

As to B2, the “KD fold (SG1 = 1)” value was 2.4 fold.

In the case of B3, the “KD fold (SG1 = 1)” value was 2.8 fold.

Consider B4, for which the “KD fold (SG1 = 1)” value was found to be 1.3 fold.

For B5, the “KD fold (SG1 = 1)” value was 2.4 fold.

As for B6, the “KD fold (SG1 = 1)” value worked out at 2.4 fold.

On to B7, for which the “KD fold (SG1 = 1)” value was 2.7 fold.

In the case of B8, the “KD fold (SG1 = 1)” value turned out to be 2 fold.

For B9, the “KD fold (SG1 = 1)” value is 2.3 fold.

The next assay concerns the target T4, human FcγRIIaH extracellular domain, …. Nature of the assay: SPR (BIACORE); KD of SG1 divided by KD of variant.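 Note: relative to parent M103205H795-SG1 carrying the SG1 human heavy chain constant region.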
In the case of B1, the “KD fold (SG1 = 1)” value turned out to be 4.1 fold.

Turning to B2, the “KD fold (SG1 = 1)” value worked out at 3.8 fold.

As for B3, the “KD fold (SG1 = 1)” value was found to be 3.3 fold.

Regarding B4, the “KD fold (SG1 = 1)” value amounted to 2.8 fold.

Turning to B5, the “KD fold (SG1 = 1)” value came out at 3.5 fold.

Take B6: the “KD fold (SG1 = 1)” value was determined as 3 fold.

Consider B7, for which the “KD fold (SG1 = 1)” value came to 3.8 fold.

Regarding B8, the “KD fold (SG1 = 1)” value came to 2.5 fold.

Turning to B9, the “KD fold (SG1 = 1)” value was 4.1 fold.

A further assay concerns the target T5, human FcγRIIaR extracellular domain, …. Description: SPR (BIACORE); KD of SG1 divided by KD of variant.
With B1, the “KD fold (SG1 = 1)” value stood at 4.2 fold.

Take B2: the “KD fold (SG1 = 1)” value was 2.2 fold.

Turning to B3, the “KD fold (SG1 = 1)” value was found to be 2.5 fold.

Take B4: the “KD fold (SG1 = 1)” value was found to be 1.8 fold.

Consider B5, for which the “KD fold (SG1 = 1)” value is 2.6 fold.

In the case of B6, the “KD fold (SG1 = 1)” value is 2.5 fold.

B7: the “KD fold (SG1 = 1)” value came out at 3.1 fold.

Take B8: the “KD fold (SG1 = 1)” value is 2.3 fold.

In the case of B9, the “KD fold (SG1 = 1)” value came out at 4.2 fold.

The next assay addresses T6, cynomolgus monkey FcγRIIa3 …. Description: SPR (BIACORE); KD of SG1 divided by KD of variant.
Consider B1, for which the “KD fold (SG1 = 1)” value was found to be 4.4 fold.

Consider B2, for which the “KD fold (SG1 = 1)” value was determined as 3.3 fold.

Turning to B3, the “KD fold (SG1 = 1)” value amounted to 3.5 fold.

For the molecule B4, the “KD fold (SG1 = 1)” value turned out to be 3.3 fold.

With B5, the “KD fold (SG1 = 1)” value was found to be 3.5 fold.

Take B6: the “KD fold (SG1 = 1)” value stood at 3.8 fold.

With B7, the “KD fold (SG1 = 1)” value amounted to 3.6 fold.

For B8, the “KD fold (SG1 = 1)” value was determined as 3.3 fold.

With B9, the “KD fold (SG1 = 1)” value turned out to be 3.9 fold.

In another assay the target is T7, human FcγRIIb extracellular domain, …. Description: SPR (BIACORE); KD of SG1 divided by KD of variant.
As to B1, the “KD fold (SG1 = 1)” value amounted to 2.9 fold.

Turning to B2, the “KD fold (SG1 = 1)” value is 1.8 fold.

Take B3: the “KD fold (SG1 = 1)” value amounted to 2 fold.

Regarding B4, the “KD fold (SG1 = 1)” value is 1.6 fold.

B5: the “KD fold (SG1 = 1)” value was found to be 1.9 fold.

With B6, the “KD fold (SG1 = 1)” value is 1.8 fold.

In the case of B7, the “KD fold (SG1 = 1)” value came out at 2.3 fold.

Regarding B8, the “KD fold (SG1 = 1)” value was 1.8 fold.

For B9, the “KD fold (SG1 = 1)” value came out at 3.3 fold.

In a further assay the target is T8, cynomolgus monkey FcγRIIa1 …. Description: SPR (BIACORE); KD of SG1 divided by KD of variant.
As for B1, the “KD fold (SG1 = 1)” value was found to be 1.7 fold.

Turning to B2, the “KD fold (SG1 = 1)” value stood at 1.5 fold.

Regarding B3, the “KD fold (SG1 = 1)” value was 1.5 fold.

For the molecule B4, the “KD fold (SG1 = 1)” value turned out to be 1.6 fold.

For B5, the “KD fold (SG1 = 1)” value was 1.5 fold.

For B6, the “KD fold (SG1 = 1)” value was 1.2 fold.

In the case of B7, the “KD fold (SG1 = 1)” value is 1.7 fold.

Take B8: the “KD fold (SG1 = 1)” value was found to be 1.1 fold.

On to B9, for which the “KD fold (SG1 = 1)” value stood at 1.7 fold.

(Values after patent US20200317768A1 (published 2020).)
